“And” between values parts separate entries of the source, which are not always exact repeats. Equal values may be shown once.
Biological target: T1, recombinant extracellular domain of CD47 (UniProt Q08722 19-139, limits assumed)
T1 construct: extracellular domain; Analyte flowed over the captured antibodies in SPR; also called CD47-ECD
Experiment: SPR; antibody captured on anti-human Fc, CD47-ECD flowed 0-100 nM; 1:1 Langmuir
Protocol: The binding kinetics of anti-CD47 antibodies to the recombinant extracellular domain of CD47 were determined by using surface Plasmon resonance (SPR, MASS-1, Sierra Sensors; T200, Biacore, GE Healthcare Life Sciences). Anti-human Fc (P/N: BR-1008-39 (GE Healthcare Life Sciences)) was immobilized on a High Capacity Amine chip (P/N: SPR-AS-HCA, Sierra sensors) or CM5-S Chip (GE Healthcare Life Sciences). CD47 antibodies were captured on Human IgG FC and CD47-ECD was flowed over the surface at various concentrations ranging from zero (for double referencing) to 100 nM. In order to determine KD's, antibodies were ranked using a 1:1 Langmuir model.

T1 sequence (Q08722 19-139 limits assumed): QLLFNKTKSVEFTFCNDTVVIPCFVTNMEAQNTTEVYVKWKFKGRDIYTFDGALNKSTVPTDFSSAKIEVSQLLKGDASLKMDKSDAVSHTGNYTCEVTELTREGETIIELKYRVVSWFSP

Binder	Kd	koff	kon
Ab1119/Ab480 (antibody, V domains shown, Variant of AbParental; also called LC Ab1119 / HC Ab480) VH: QMQLVQSGAEVKKPGSSVKVSCKASGFNIKDYYLHWVRQAPGKGLEWMGWIDPDQGDTEYAQKFQGRVTITRDRSTSTAYMELRSLRAEDTAVYYCNAAYGSSSYPMDYWGQGTLVTVSS VL: NIQMTQSPSSLSASVGDRVTITCRASQDIHRYLSWFQQKPGKVPKHLIYRANRLVSGVPSRFSGSGSGTEFTLTISSLQPEDFATYYCLQYDEFPYTFGGGTKVEIK	0.564 nM	0.00577 s⁻¹	1.02e+07 M⁻¹ s⁻¹
Ab480/Ab1122 (antibody, V domains shown, FR and CDR L2 variant; Label printed HC first; r445 used; also called HC Ab480 / LC Ab1122) VH: QMQLVQSGAEVKKPGSSVKVSCKASGFNIKDYYLHWVRQAPGKGLEWMGWIDPDQGDTEYAQKFQGRVTITRDRSTSTAYMELRSLRAEDTAVYYCNAAYGSSSYPMDYWGQGTLVTVSS VL: NIQMTQSPSSLSASVGDRVTITCRASQDIHRYLSWFQQKPGKVPKHLIYRYERFVDGVPSRFSGSGSGTEFTLTISSLQPEDFATYYCLQYDEFPYTFGGGTKVEIK	4.68 nM	0.0109 s⁻¹	2.33e+06 M⁻¹ s⁻¹
Ab495/Ab356 (antibody, V domains shown, also called LC Ab495 / HC Ab356) VH: QMQLVQSGAEVKKPGSSVKVSCKASGFNIKDYYLHWVRQAPGKGLEWMGWIDPDQGDTEYAQKFQGRVTITRDRSTSTAYMELRSLRAEDTAVYYCNAAYGSSSYPMDYWGQGTTVTVSS VL: NIQMTQSPSSLSASVGDRVTITCKASQDIHRYLSWYQQKPGKAPKHLIYRANRLVSGVPSRFSGSGSGTEFTLTISSLQPEDFATYYCLQYDEFPYTFGGGTKVEIK	1.36 nM	0.00426 s⁻¹	3.13e+06 M⁻¹ s⁻¹
Ab356/Ab1120 (antibody, V domains shown, FR and CDR L2 variant; also called HC Ab356 / LC Ab1120) VH: QMQLVQSGAEVKKPGSSVKVSCKASGFNIKDYYLHWVRQAPGKGLEWMGWIDPDQGDTEYAQKFQGRVTITRDRSTSTAYMELRSLRAEDTAVYYCNAAYGSSSYPMDYWGQGTTVTVSS VL: NIQMTQSPSSLSASVGDRVTITCRASQDIHRYLSWFQQKPGKVPKHLIYRYVRFVDGVPSRFSGSGSGTEFTLTISSLQPEDFATYYCLQYDEFPYTFGGGTKVEIK	1.02 nM	0.00274 s⁻¹	2.69e+06 M⁻¹ s⁻¹
Ab480/Ab1121 (antibody, V domains shown, FR and CDR L2 variant; Label printed HC first; r442 used; also called HC Ab480 / LC Ab1121) VH: QMQLVQSGAEVKKPGSSVKVSCKASGFNIKDYYLHWVRQAPGKGLEWMGWIDPDQGDTEYAQKFQGRVTITRDRSTSTAYMELRSLRAEDTAVYYCNAAYGSSSYPMDYWGQGTLVTVSS VL: NIQMTQSPSSLSASVGDRVTITCRASQDIHRYLSWFQQKPGKVPKHLIYRYIRFVDGVPSRFSGSGSGTEFTLTISSLQPEDFATYYCLQYDEFPYTFGGGTKVEIK	1.14 nM	0.00303 s⁻¹	2.67e+06 M⁻¹ s⁻¹
Ab1119/Ab170 (antibody, V domains shown, Variant of AbParental; also called LC Ab1119 / HC Ab170) VH: QMQLVQSGAEVKKPGSSVKVSCKASGFNIKDYYLHWVRQAPGKGLEWMGWIDPDQGDTEYAQKFQGRVTITRDRSTSTAYMELRSLRSEDTAVYYCNAAYGSSSYPMDYWGQGTTVTVSS VL: NIQMTQSPSSLSASVGDRVTITCRASQDIHRYLSWFQQKPGKVPKHLIYRANRLVSGVPSRFSGSGSGTEFTLTISSLQPEDFATYYCLQYDEFPYTFGGGTKVEIK	0.562 nM	0.00583 s⁻¹	1.04e+07 M⁻¹ s⁻¹
Ab356/Ab1122 (antibody, V domains shown, FR and CDR L2 variant; Label printed HC first; r445 used; also called HC Ab356 / LC Ab1122) VH: QMQLVQSGAEVKKPGSSVKVSCKASGFNIKDYYLHWVRQAPGKGLEWMGWIDPDQGDTEYAQKFQGRVTITRDRSTSTAYMELRSLRAEDTAVYYCNAAYGSSSYPMDYWGQGTTVTVSS VL: NIQMTQSPSSLSASVGDRVTITCRASQDIHRYLSWFQQKPGKVPKHLIYRYERFVDGVPSRFSGSGSGTEFTLTISSLQPEDFATYYCLQYDEFPYTFGGGTKVEIK	77.9 nM	0.00411 s⁻¹	22800 M⁻¹ s⁻¹
Ab480/Ab1120 (antibody, V domains shown, FR and CDR L2 variant; Label printed HC first although the head says LC/HC; also called HC Ab480 / LC Ab1120) VH: QMQLVQSGAEVKKPGSSVKVSCKASGFNIKDYYLHWVRQAPGKGLEWMGWIDPDQGDTEYAQKFQGRVTITRDRSTSTAYMELRSLRAEDTAVYYCNAAYGSSSYPMDYWGQGTLVTVSS VL: NIQMTQSPSSLSASVGDRVTITCRASQDIHRYLSWFQQKPGKVPKHLIYRYVRFVDGVPSRFSGSGSGTEFTLTISSLQPEDFATYYCLQYDEFPYTFGGGTKVEIK	1.05 nM	0.00238 s⁻¹	2.28e+06 M⁻¹ s⁻¹
Ab482/Ab387 (antibody, V domains shown, FR variant of AbParental; also called LC Ab482 / HC Ab387) VH: QMQLVQSGAEVKKPGSSVKVSCKASGFNIKDYYLHWVRQAPGKGLEWMGWIDPDQGDTEYAQKFQGRVTITRDRSTSTAYMELRSLRSEDTAVYYCNAAYGSSSYPMDYWGQGTLVTVSS VL: NIQMTQSPSSMSASVGDRVTITCKASQDIHRYLSWFQQKPGKVPKHLIYRANRLVSGVPSRFSGSGSGTEFTLTISSLQPEDFATYYCLQYDEFPYTFGGGTKVEIK	0.553 nM	0.00549 s⁻¹	9.93e+06 M⁻¹ s⁻¹
Ab480/Ab1127 (antibody, V domains shown, FR and CDR L2 variant; Label printed HC first; r460 used; also called HC Ab480 / LC Ab1127) VH: QMQLVQSGAEVKKPGSSVKVSCKASGFNIKDYYLHWVRQAPGKGLEWMGWIDPDQGDTEYAQKFQGRVTITRDRSTSTAYMELRSLRAEDTAVYYCNAAYGSSSYPMDYWGQGTLVTVSS VL: NIQMTQSPSSLSASVGDRVTITCRASQDIHRYLSWFQQKPGKVPKHLIYRESRFVDGVPSRFSGSGSGTEFTLTISSLQPEDFATYYCLQYDEFPYTFGGGTKVEIK	2.42 nM	0.00622 s⁻¹	2.57e+06 M⁻¹ s⁻¹

Further lines, results first:

Kd	koff	kon	Binder
4.76 nM	0.0106 s⁻¹	2.22e+06 M⁻¹ s⁻¹	Ab356/Ab1127 (antibody, V domains shown, FR and CDR L2 variant; Label printed HC first; r460 used; also called HC Ab356 / LC Ab1127) VH: QMQLVQSGAEVKKPGSSVKVSCKASGFNIKDYYLHWVRQAPGKGLEWMGWIDPDQGDTEYAQKFQGRVTITRDRSTSTAYMELRSLRAEDTAVYYCNAAYGSSSYPMDYWGQGTTVTVSS VL: NIQMTQSPSSLSASVGDRVTITCRASQDIHRYLSWFQQKPGKVPKHLIYRESRFVDGVPSRFSGSGSGTEFTLTISSLQPEDFATYYCLQYDEFPYTFGGGTKVEIK
0.635 nM and 0.599 nM	0.00647 s⁻¹ and 0.0059 s⁻¹	1.02e+07 M⁻¹ s⁻¹ and 9.85e+06 M⁻¹ s⁻¹	Ab1119/Ab356 (antibody, V domains shown, Variant of AbParental; also called LC Ab1119 / HC Ab356) VH: QMQLVQSGAEVKKPGSSVKVSCKASGFNIKDYYLHWVRQAPGKGLEWMGWIDPDQGDTEYAQKFQGRVTITRDRSTSTAYMELRSLRAEDTAVYYCNAAYGSSSYPMDYWGQGTTVTVSS VL: NIQMTQSPSSLSASVGDRVTITCRASQDIHRYLSWFQQKPGKVPKHLIYRANRLVSGVPSRFSGSGSGTEFTLTISSLQPEDFATYYCLQYDEFPYTFGGGTKVEIK
1.08 nM	0.00272 s⁻¹	2.53e+06 M⁻¹ s⁻¹	Ab356/Ab1121 (antibody, V domains shown, FR and CDR L2 variant; Label printed HC first; the entry in numeric order (r442) is used; also called HC Ab356 / LC Ab1121) VH: QMQLVQSGAEVKKPGSSVKVSCKASGFNIKDYYLHWVRQAPGKGLEWMGWIDPDQGDTEYAQKFQGRVTITRDRSTSTAYMELRSLRAEDTAVYYCNAAYGSSSYPMDYWGQGTTVTVSS VL: NIQMTQSPSSLSASVGDRVTITCRASQDIHRYLSWFQQKPGKVPKHLIYRYIRFVDGVPSRFSGSGSGTEFTLTISSLQPEDFATYYCLQYDEFPYTFGGGTKVEIK
1.32 nM	0.00434 s⁻¹	3.29e+06 M⁻¹ s⁻¹	Ab495/Ab480 (antibody, V domains shown, also called LC Ab495 / HC Ab480) VH: QMQLVQSGAEVKKPGSSVKVSCKASGFNIKDYYLHWVRQAPGKGLEWMGWIDPDQGDTEYAQKFQGRVTITRDRSTSTAYMELRSLRAEDTAVYYCNAAYGSSSYPMDYWGQGTLVTVSS VL: NIQMTQSPSSLSASVGDRVTITCKASQDIHRYLSWYQQKPGKAPKHLIYRANRLVSGVPSRFSGSGSGTEFTLTISSLQPEDFATYYCLQYDEFPYTFGGGTKVEIK
